Test results reported in paper PMC8345930, “Quaternary Structure and Hetero-Oligomerization of Recombinant Human Small Heat Shock Protein HspB7 (cvHsp)” (International Journal of Molecular Sciences, 2021).
Substitutions are numbered along the chain they refer to. Names may count otherwise.

B1: HspB7 with Cys126 modified by iodoacetamide (natural protein)
chain: not shown
modifications: Cys126 modified by iodoacetamide
notes: HspB7 (cvHsp), human; full copy from Addgene #63108 in pET23b(+); the single SH group (Cys126) modified by iodoacetamide; Same construct as m1, chemically modified at Cys126; also called SH Mod HspB7-L
B2: Δ13 mutant of HspB7 (lacking the first 13 residues) (domain or fragment)
chain: not shown
notes: HspB7 (cvHsp), human, lacking the first 13 residues; made by PCR from the pET23b(+) HspB7 plasmid (forward primer with an NdeI site, ATG before the codon of residue 14); The printed forward primer places a start codon (Met) directly before residue 14; source: E. coli Rosetta2 (DE3) pLysS, purified
B3: ΔSer mutant of HspB7 (lacking the polySer sequence, residues 17–29) (natural protein)
chain: not shown
notes: source: E. coli Rosetta2 (DE3) pLysS, purified
B4: recombinant human small heat shock protein HspB7 (cvHsp), wild type, untagged (natural protein)
chain: not shown
notes: HspB7 (cvHsp), human; full copy recloned from Addgene #63108 into pET23b(+) at NdeI and XhoI; single Cys126; calculated monomer weight 18.6 kDa; HspB7-D (small oligomers, probably dimers) and HspB7-L (mostly large oligomers) are two oligomeric preparations of the same construct; the assays tell them apart; also called cardiovascular Hsp; HspB7-D; source: E. coli Rosetta2 (DE3) pLysS, purified …
B5: Cys-mutant of HspB8 (C10S/C99S/C195S/N138C) (natural protein, human, UniProt Q9UJY1 1-196, looked up)
chain: MADGQMPFSSHYPSRLRRDPFRDSPLSSRLLDDGFGMDPFPDDLTASWPDWALPRLSSAWPGTLRSGMVPRGPTATARFGVPAEGRTPPPFPGEPWKVSVNVHSFKPEELMVKTKDGYVEVSGKHEEKQQEGGIVSKCFTKKIQLPAEVDPVTVFASLSPEGLLIIEAPQVPPYSTFGESSFNNELPQDSQEVTST
notes: HspB8, human, with the four mutations C10S/C99S/C195S/N138C; single Cys in the β7 strand at the position homologous to Cys137 of HspB1; also called HspB8 Cys; HspB8 Cys^Ox
B6: Cys-mutant of HspB6 (C46S/E116C) (natural protein, human, UniProt O14558 1-160, looked up)
chain: MEIPVPVQPSWLRRASAPLPGLSAPGRLFDQRFGEGLLEAELAALSPTTLAPYYLRAPSVALPVAQVPTDPGHFSVLLDVKHFSPEEIAVKVVGEHVEVHARHEERPDEHGFVARCFHRRYRLPPGVDPAAVTSALSPEGVLSIQAAPASAQAPPPAAAK
notes: HspB6, human, with the double mutation C46S/E116C; single Cys in the β7 strand at the position homologous to Cys137 of HspB1; also called HspB6 Cys; HspB6 Cys^Ox
B7: wild-type HspB6 (natural protein, human, UniProt O14558 1-160, looked up)
chain: B6 chain with S46C, C116E
notes: HspB6, human, full-size wild type; The abstract says that the wild-type HspB6 was used in the ELISA

Tests used:
[1] = target: the molecule itself; experiment: SEC; HspB7-L (0.6 mg/mL) reduced with 3 mM DTT, Cys126 modified with 8 mM iodoacetamide, then analytical SEC on Superdex 200 Increase
[2] = target: the molecule itself; experiment: SEC; Δ13 and ΔSer deletion mutants of HspB7; analytical Superdex 200 Increase 10/30 GL, 50 mM phosphate pH 7.4, 150 mM NaCl
[3] = target: the molecule itself; experiment: SEC; HspB7-D preparation (flow-through of phenyl sepharose, Fraction 1); analytical Superdex 200 Increase 10/30 GL, 50 mM phosphate pH 7.4, 150 mM NaCl; 20, 50 or 100 μg loaded
[4] = target: the molecule itself; experiment: cross-linking; disulfide cross-linking: reduced proteins alone or in equimolar mixture (15 µM each), 1 h at 42 °C, dialysed overnight at 37 °C against 50 mM Tris-HCl pH 8.0, 50 mM KCl, 0.1 mM PMSF; read by SDS-PAGE (HspB8) or urea gel electrophoresis (HspB6)
[5] = target: B4; experiment: SEC; oxidised (disulfide cross-linked) proteins alone or in equimolar mixture on Superdex 200 Increase GL 10/300; profile of the mixture compared with the arithmetic sum of the isolated proteins; details: both partners purified
[6] = target: B4; experiment: ELISA; sandwich: plate coated with monoclonal mouse anti-HspB6 antibody (clone 20-6) as capture; HspB6, HspB7 or their equimolar mixture added (25-400 ng of each protein per well), 1 h; HspB7 detected by rabbit polyclonal anti-HspB7 and HRP-conjugated anti-rabbit antibodies; details: both partners purified

B1: binds [1].

B2: binds [2].

B3: binds [2].

With B4 the “stoichiometry N” value [3] was ~2.

B5: binds [4].

B6: binds [5]; binds [4].

B7: binds [6].
